Consider 1 molecule from patent US20220265772A1, “USES OF DAN FAMILY BMP ANTAGONISTS FOR INHIBITING OCULAR NEOVASCULARIZATION AND TREATING OCULAR CONDITIONS” (9636137 Canada Inc., priority 2019, published 2022).

Where two headings read alike, the source gives them in different places.

In series [1] the test system is pathological retinal neovascularization. In words: Oxygen-induced retinopathy (OIR). It is filed as in vivo, mouse. As for the experimental part: C57BL/6J mouse pups at postnatal day (P)7 and their fostering mothers (CD1, Charles River) were submitted to 75% oxygen in oxycycler chamber for 5 days. Pups were then returned to normoxia at P12 and administered 100 ng of recombinant human DAND5 intravitreally or similar volume of vehicle in the contralateral eye. Eyes were enucleated at P17 and processed for immunostaining. Ocular globes were initially fixed for 15 min in 4% paraformaldehyde (PFA). Retinas or choroids were collected after eyes dissection in PBS and blocked 1 h in PBS 3% BSA 0.1% Triton X-100TM. Fixation was prolonged in 1% PFA overnight for choroid extraction or eyes sectioning. Prior to sectioning, eyes were maintained in sucrose gradients (10-30%), cryo-preserved in a matrix gel and sliced in 14 μm sections on a cryostat (LeicaTM C[…]). Staining with either FITC-labeled isolectin GS 1B4 (Life technologies corporation), rhodamine phalloidin (Cedarlane Laboratories), phospho-histone H3 (Abcam), Collagen IV (Abcam) or cleaved caspase-3 (Cell Signaling) antibodies were performed on whole and/or sectioned retinas/choroids. Retinas and choroids were then mounted in fluoromount aqueous medium (Sigma-Aldrich). Quantitative analysis of tufts, vaso-obliterated or vessel areas were performed using imageJ/Swift_NVTM as previously described (1). Neovascular tuft formation was quantified by comparing the number of pixels in the affected areas with the total number of pixels in the retina. The avascular area in the retina was measured in the same way using an anti-DAND5/COCO polyclonal goat IgG antibody (AF3047, R&D systems). The effects of DAND5 on postnatal developmental angiogenesis led us to evaluate its effects on pathological angiogenesis by subjecting mouse pups to Oxygen-induced Retinopathy (OIR). Briefly, P7 pups were placed in 75% oxygen for 5 days, leading to vaso-obliteration of the retinal vascular plexus. At P12, pups were returned to room air, which stimulates retinal angiogenesis, and leads to the formation of a pathological vascular retinal network characterized by neovascular tufts (FIG. 5A).

Series [2] has as its system retinal vascular development. In kind it is in vivo, mouse. As for the experimental part: Animals were anaesthetized with isofluorane. A 10 μL Hamilton syringe with a glass-pulled capillary was inserted with a 45° injection angle into the vitreous. When accessing the role of DAND5 developmentally, animals were injected at P1 (DAND5:100 ng; or PBS: 1 μl) and were euthanized at P5 to quantify vascular growth. The DAND5 used for the injection was a human recombinant DAND5/COCO biologically active fragment produced in E. coli and purified by SDS-PAGE (Arg23-Ala189 with an N-terminal Met, predicted 18.2 kDa monomer, R&D systems; 3047-CC-050). During the neovascularization phase of OIR, animals were injected at P12 (2 μL) before sacrifice at P17 for quantification of neovascularization. For adult mice and laser-induced neovascularization, intravitreal injections were performed under a surgical microscope. Mice were anaesthetized with isofluorane. Pupils were dilated using 1% tropicamide. A 33-gauge needle was inserted from the limbus with a 45° injection angle into the vitreous. The direction and location of the needle was monitored through the surgical microscope.
Ocular globes were initially fixed for 15 min in 4% paraformaldehyde (PFA). Retinas or choroids were collected after eyes dissection in PBS and blocked 1 h in PBS 3% BSA 0.1% Triton X-100™. Fixation was prolonged in 1% PFA overnight for choroid extraction or eyes sectioning. Prior to sectioning, eyes were maintained in sucrose gradients (10-30%), cryo-preserved in a matrix gel and sliced in 14 μm sections on a cryostat (Leica™ CM3050S). Staining with either FITC-labeled isolectin GS 1B4 (Life technologies corporation), rhodamine phalloidin (Cedarlane Laboratories), phospho-histone H3 (Abcam), Collagen IV (Abcam) or cleaved caspase-3 (Cell Signaling) antibodies were performed on whole and/or sectioned retinas/choroids. Retinas and choroids were then mounted in fluoromount aqueous medium (Sigma-Aldrich). Quantitative analysis of tufts, vaso-obliterated or vessel areas were performed using imageJ/Swift_NV™ as previously described (1). Neovascular tuft formation was quantified by comparing the number of pixels in the affected areas with the total number of pixels in the retina. The avascular area in the retina was measured in the same way using an anti-DAND5/COCO polyclonal goat IgG antibody (AF3047, R&D systems).
As DAND5 prevents VEGF-induced EC sprouting, proliferation and migration, we evaluated whether it could inhibit retinal vascular development. Newborn mouse pups (P1) received intravitreal injections of recombinant DAND5 (100 ng), and retinas were harvested after 4 days (P5) (FIG. 2A).
Blood vessels constrict in the course of vessel regression and EC retract, leaving behind empty BM sleeves.

Setting [3] is: 100 ng at P1, P5, compared with PBS-injected eyes.

B1: DAND5: human recombinant DAND5/COCO biologically active fragment produced in E. coli, predicted 18.2 kDa monomer, R&D systems 3047-CC-050 (protein)
chain: MRPEPQSPRPQSWAAANQTWALGPGALPPLVPASALGSWKAFLGLQKARQLGMGRLQRGQDEVAAVTLPLNPQEVIQGMCKAVPFVQVFSRPGCSAIRLRNHLCFGHCSSLYIPGSDPTPLVLCNSCMPARKRWAPVVLWCLTGSSASRRRVKISTMLIEGCHCSPKA
Regarding B1, in series [1], the “effect on neovascularization compared with Flt1 Fc” value is given as “stronger effect on neovascularization than Flt1 Fc”. In series [1] (100 ng intravitreal at P12, retinas at P17), the pathological neovascularization result is given as “significantly reduced pathological neovascularization”. Moreover, in series [1] (injection at P12, P17), the “revascularization of the central part of the retina” value is on record as “not affected”. Moreover, in series [1] (injection at P12, P17, compared to PBS), the “amount and size of neovascular tufts” value was “significantly reduced”. For the same molecule, the “number of vascular branch points” value in series [2] (100 ng at P1, P5) is listed as “reduced number of vascular branch points”. Also, in series [2] (setting [3]), the “microvessel density (ratio of vessel area to vascularized area)” value is listed as “pronounced reduction” and the “vessel area (area covered by vessels)” value was “pronounced reduction of vessel area”. In series [2] (P1 injection, P5), the “EC proliferation in retinal vasculature (pH3)” value is “reduced EC proliferation”, the “empty type IV collagen (ColIV) BM sleeves” value is listed as “significantly higher numbers of empty type IV collagen (ColIV) BM sleeves” and the “inhibition of retinal neovascularization compared with VEGF inhibitor (mouse Flt1 Fc)” value is recorded as “significantly more pronounced than that of a VEGF inhibitor (mouse Flt1 Fc)”. The “empty type IV collagen (ColIV) BM sleeves” value in series [2] (P1 injection, P5, listed as Dand5) is recorded as “increased”. Besides, in series [2] (intravitreal 100 ng at P1, retinas at P5), the blood vessel development result is “dramatic inhibition of blood vessel development”. In series [2] (mouse, in vivo), the “apoptosis in retinal vasculature (CC3)” value is recorded as “no change in apoptosis”; the “necroptosis in retinal vasculature (Rip3)” value is listed as “no change in apoptosis (FIG. 11D, E) or necroptosis”; the “photoreceptor morphology or apoptosis” value is “did not affect”; the retinal pericyte coverage result is “did not affect retinal pericyte coverage”.
